The target in experiment [1] is T1, hCD226-His tagged protein transiently expressed on CHO cells (human, UniProt Q15762 19-336).
T1 construct: whole, on cells; also called DNAM-1
T1 sequence (looked up): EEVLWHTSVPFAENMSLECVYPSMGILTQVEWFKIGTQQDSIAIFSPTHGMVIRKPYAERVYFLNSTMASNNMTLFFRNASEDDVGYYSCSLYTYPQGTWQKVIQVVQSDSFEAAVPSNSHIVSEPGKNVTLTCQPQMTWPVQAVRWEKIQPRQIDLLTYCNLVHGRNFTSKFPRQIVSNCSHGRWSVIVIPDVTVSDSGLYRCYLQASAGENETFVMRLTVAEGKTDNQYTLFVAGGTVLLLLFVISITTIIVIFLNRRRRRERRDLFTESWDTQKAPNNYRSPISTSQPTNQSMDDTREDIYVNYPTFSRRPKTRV
As to the kind of experiment: FRET by flow cytometry on transfected CHO cells.

Experiment [2] deals with T2, mouse CD96 expressed on CHO cells (mouse, UniProt Q3U0X8 22-602).
T2 construct: whole, on cells; also called mCD96
T2 sequence (looked up): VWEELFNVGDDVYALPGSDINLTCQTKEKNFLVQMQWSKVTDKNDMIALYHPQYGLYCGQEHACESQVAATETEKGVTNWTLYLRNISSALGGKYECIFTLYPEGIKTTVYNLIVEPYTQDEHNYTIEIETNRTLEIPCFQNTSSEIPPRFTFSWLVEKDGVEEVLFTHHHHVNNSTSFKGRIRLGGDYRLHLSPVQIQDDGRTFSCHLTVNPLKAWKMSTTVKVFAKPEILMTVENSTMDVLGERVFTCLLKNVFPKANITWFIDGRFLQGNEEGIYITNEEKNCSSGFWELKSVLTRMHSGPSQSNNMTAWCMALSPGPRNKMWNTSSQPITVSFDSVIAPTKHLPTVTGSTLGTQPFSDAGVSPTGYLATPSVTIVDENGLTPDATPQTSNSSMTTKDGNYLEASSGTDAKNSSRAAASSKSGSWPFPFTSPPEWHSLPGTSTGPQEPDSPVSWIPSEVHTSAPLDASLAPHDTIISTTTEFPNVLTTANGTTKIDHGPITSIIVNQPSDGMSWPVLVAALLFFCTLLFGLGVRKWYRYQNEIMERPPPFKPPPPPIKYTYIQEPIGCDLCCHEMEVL
The experiment can be described thus: FCM on CHO cells expressing mouse CD96. Summed up:
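Flow cytometry on non-fixed CHO transfectants; mouse CD96 surface expression verified with clone 6A6. Mouse anti-CD96 antibodies or isotype controls applied at 10 or 1 μg/mL, 30 min at +4 °C.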

Experiment [3] addresses T3, human CD96 long isoform v1 transiently expressed on CHO cells (human, UniProt P40200 22-585).
T3 construct: also called hCD96v1; CD96v1
T3 sequence: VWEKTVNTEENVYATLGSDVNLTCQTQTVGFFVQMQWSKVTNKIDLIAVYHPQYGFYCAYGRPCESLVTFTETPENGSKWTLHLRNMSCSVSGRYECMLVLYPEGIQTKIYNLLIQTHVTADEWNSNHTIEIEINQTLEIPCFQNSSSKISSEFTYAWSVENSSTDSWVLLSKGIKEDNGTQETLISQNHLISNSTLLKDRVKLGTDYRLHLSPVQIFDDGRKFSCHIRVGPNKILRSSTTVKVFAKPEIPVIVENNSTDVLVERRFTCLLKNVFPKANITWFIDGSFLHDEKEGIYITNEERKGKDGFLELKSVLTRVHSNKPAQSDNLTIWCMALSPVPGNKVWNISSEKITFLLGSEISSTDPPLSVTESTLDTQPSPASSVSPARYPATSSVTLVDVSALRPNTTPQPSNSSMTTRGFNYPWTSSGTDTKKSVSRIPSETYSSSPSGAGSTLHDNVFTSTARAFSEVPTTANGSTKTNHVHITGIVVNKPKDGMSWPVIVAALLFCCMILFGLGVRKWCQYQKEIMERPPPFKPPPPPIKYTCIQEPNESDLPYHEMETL
The experiment can be described thus: FCM on hCD96v1-CHO cells, 10 µg/ml.

Experiment [4] deals with T4, human CD96 short isoform v2 expressed on CHO cells (human, UniProt P40200 22-585).
T4 construct: also called hCD96v2; CD96v2; not shown: C-terminal HA-tag
T4 sequence: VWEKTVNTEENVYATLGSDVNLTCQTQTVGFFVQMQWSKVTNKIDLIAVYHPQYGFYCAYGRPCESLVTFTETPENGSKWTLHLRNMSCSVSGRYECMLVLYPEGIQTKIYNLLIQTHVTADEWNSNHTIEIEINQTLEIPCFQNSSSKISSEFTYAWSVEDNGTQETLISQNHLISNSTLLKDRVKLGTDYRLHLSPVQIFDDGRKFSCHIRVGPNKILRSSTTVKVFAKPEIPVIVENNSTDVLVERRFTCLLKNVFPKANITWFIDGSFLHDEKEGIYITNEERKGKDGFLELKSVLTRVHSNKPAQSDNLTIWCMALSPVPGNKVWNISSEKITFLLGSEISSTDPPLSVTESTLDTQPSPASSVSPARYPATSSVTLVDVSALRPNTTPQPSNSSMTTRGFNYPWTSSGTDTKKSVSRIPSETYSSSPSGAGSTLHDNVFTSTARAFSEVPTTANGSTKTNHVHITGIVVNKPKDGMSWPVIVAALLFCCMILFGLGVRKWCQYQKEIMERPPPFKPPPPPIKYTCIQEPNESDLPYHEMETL
As to the kind of experiment: flow cytometry, indirect staining of transiently transfected CHO-S cells; median % of stained cells, 3-4 experiments. From the text:
Expression plasmids containing either the complete sequence of hCD96v2 or different extracellular domains (D1 to D3) of hCD96v2 or combinations thereof (D1D2, D1D3 or D2D3) were transiently transfected in CHO-S cells. Each transient transfect was indirectly stained with the different anti-CD96 candidates and analyzed by flow cytometry. Represented is the median % of stained CHO-S transfect obtained from 3 to 4 independent experiments for each anti-CD96 tested.
Expression vectors coding for truncated extracellular domains of hCD96v2 (short isoform v2) were constructed to map, within the 3 described immunoglobulin domains of hCD96v2, the epitopes recognized by the anti-hCD96 candidates. All expression vectors constructed contained the signal peptide, the D4 domain, the transmembrane, the intracellular chain of […] plus a HA-Tag to monitor transfection efficiency of the various constructs. The expression vectors contained only D1, D2, D3 or combinations of those 3 domains (D1D2, D1D3, D2D3). The anti-hCD96 antibodies were tested by FCM for their capacity to recognize the truncated CD96 proteins transiently expressed on CHO-S cells.
On the technique in general: Flow cytometry measures light scatter and fluorescence of single cells or particles in a stream.

Experiment [5] has as its target T5, rhesus CD96 transiently expressed on CHO cells (rhesus, UniProt P40200 22-585 (human entry)).
T5 construct: also called rhesus CD96, short isoform
T5 chain: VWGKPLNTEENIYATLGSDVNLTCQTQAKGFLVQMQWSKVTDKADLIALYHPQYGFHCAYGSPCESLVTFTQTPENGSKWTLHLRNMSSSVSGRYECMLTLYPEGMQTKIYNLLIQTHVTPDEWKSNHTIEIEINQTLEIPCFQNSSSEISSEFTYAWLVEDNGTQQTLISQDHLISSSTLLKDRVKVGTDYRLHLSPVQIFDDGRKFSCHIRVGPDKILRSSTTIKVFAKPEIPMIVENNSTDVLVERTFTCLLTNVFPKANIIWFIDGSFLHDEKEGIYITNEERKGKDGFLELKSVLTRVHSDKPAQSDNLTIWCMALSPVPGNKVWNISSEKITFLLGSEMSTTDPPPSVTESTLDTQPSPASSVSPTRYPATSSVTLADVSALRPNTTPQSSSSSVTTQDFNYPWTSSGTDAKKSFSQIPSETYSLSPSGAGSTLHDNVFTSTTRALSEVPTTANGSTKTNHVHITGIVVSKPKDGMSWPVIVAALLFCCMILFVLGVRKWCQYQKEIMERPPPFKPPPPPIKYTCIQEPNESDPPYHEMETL
The experiment can be described thus: flow cytometry on CHO cells transiently expressing rhesus CD96; antibody at 1 (thin line) and 10 µg/ml (thick dashed line), filled grey = isotype control. In a few lines: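 Non-fixed CHO cells transiently transfected with rhesus CD96 were incubated with mouse anti-CD96 antibodies or isotype controls at 1 or 10 µg/mL for 30 min at 4 °C. Binding was read as fluorescence intensity by flow cytometry.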

B1: hTIGIT-Myc tagged protein transiently expressed on CHO cells (receptor, human, UniProt Q495A1 22-244, looked up)
chain: MMTGTIETTGNISAEKGGSIILQCHLSSTTAQVTQVNWEQQDQLLAICNADLGWHISPSFKDRVAPGPGLGLTLQSLTVNDTGEYFCIYHTYPDGTYTGRIFLEVLESSVAEHGARFQIPLLGAMAATLVVICTAVIVVVALTRKKKALRIHSVEGDLRRKSAGQEEWSPSAPSPPGSCVQAEAAPAGLCGEQRGEDCAELHDYFNVLSYRSLGNCSFFTETG
notes: whole, on cells
As for B1, the binding result in experiment [1] is “binds”.

B2: BL006-2-19G13-19K15 (antibody, V domains shown)
VH: QVQLQQPGSELVRPGASVKLSCKASGYKFTSYWMHWVKQRPGQGLEWIGSIYPGSGSTNYDEKFKRKATLTVDTFSSTASMQLSSLTSEDSAVYYCTREMAYWGQGTLVTVSA
VL: DIVITQDELSNPVTSGESVSISCRSSKSLLYKDGKTYLNWFLQRPGQSPQLLVYWMSTRASGVSDRFSGSGSGTDFTLEISRVKAEDVGVYYCQQVVEYPFTFGTGTKLGIK
notes: Recombinant mIgG2a/kappa (also made as mIgG2a-D265A); also called candidate NO 9
As for B2, the binding result in experiment [2] was “no binding (tested: 1 and 10 µg/mL)”; in experiment [3], “binds”; in experiment [4] it was “binds”; in experiment [5] it was “binds”.

The values above are taken from US20230192845A1 (BLINK BIOMEDICAL, published 2023).
